The values below come from the supplement of paper PMC12042874.

± gives the uncertainty stated by the source.

A short description of the data set: amyloid nucleation score (Sup35N fusion, yeast selection) (log enrichment); library NNK1; higher = more nucleation; inactive = no reads after selection. In a few lines: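 Yeast lacking psi expressed peptides of 20 random codons fused to Sup35N, received 100 μM copper sulfate for 24 hours, and were then grown for 7 days at 30°C on medium lacking adenine and uracil. Illumina sequencing of input and output plasmid inserts provided the reads. Nucleation scores are DiMSum log enrichments of output over input, centred on the mode of non-aggregating sequences. Any sequence with under 100 input reads was excluded.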

Consider LVWISVL, for which the amyloid nucleation score came out at 0.163 ± 0.32.

Turning to DFVETEFRLRRD, the amyloid nucleation score entry is “inactive”.

With VRWNWSGPNELYLRLFCRLP, the amyloid nucleation score is -0.508 ± 0.39.

As for WNYSHEV, the amyloid nucleation score result is “inactive”.

As to RFCISNARRRFLRPFGSYL, the amyloid nucleation score stood at 0.072 ± 1.1.

LIWAVLCVKHTKEYVWLAHL yielded an amyloid nucleation score of -0.469 ± 0.54.

As to MPCFGVQKIYQLDETMPSET, the amyloid nucleation score was 0.141 ± 0.45.

For SANCIWFFL, the amyloid nucleation score came to 7.105 ± 0.071.

RKVITDKTLL registered an amyloid nucleation score of -0.099 ± 0.45.

For NDQVNVNFS, the amyloid nucleation score was determined as 0.338 ± 0.22.

SVWCSFFVNAADHNIYRTIT had an amyloid nucleation score of 1.11 ± 0.15.

Take REFGLLAWVELLFWATFR: the amyloid nucleation score is -0.676 ± 0.94.

In the case of SDYTLEGLIVFPCCVLLHVR, the amyloid nucleation score worked out at 0.381 ± 0.39.

Turning to SKVSVCNPSSLGSRVGGLAN, the amyloid nucleation score result is “inactive”.

In turn, PMYLSSVVCFSKRHMPANRG showed an amyloid nucleation score of -0.138 ± 0.52.

SSTKG registered an amyloid nucleation score of 0.956 ± 0.72.

Substance MFKNRGG displayed an amyloid nucleation score of 0.057 ± 0.36.

For the substance NKTLV, the amyloid nucleation score entry is “inactive”.

For the substance LQAKMTIGAFFISYSSMYPG, the amyloid nucleation score is 2.74 ± 0.08.

GKEYYAIPMKNDGIARVNLR gave an amyloid nucleation score of 0.875 ± 0.28.

NLFVSYSTDNSSTFMWDSVR gave an amyloid nucleation score of 4.44 ± 0.058.

The substance YDYMVALFSRS yielded an amyloid nucleation score of -0.479 ± 0.66.

For YCMYMVWLKGK, the amyloid nucleation score was -0.747 ± 0.37.

Substance KRGNPMTHAFLWPVMSYVFR gave an amyloid nucleation score of 0.295 ± 0.97.

For the substance LREFLPLSNTVVGFTLDSYV, the amyloid nucleation score is -0.526 ± 0.9.

Turning to NGFLTSRCMLVCMKGMV, the amyloid nucleation score turned out to be 0.729 ± 0.34.

For EFIKWRAIGENSYGKGDMDR, the amyloid nucleation score came to 0.387 ± 1.

On to CIRMVRGSTGSTVNMSSRCS, for which the amyloid nucleation score worked out at 0.347 ± 0.27.

Substance RAVGDM returned an amyloid nucleation score of -0.241 ± 0.52.

In turn, ASRFDCEDIFGRTCGYVHYF yielded an amyloid nucleation score of -0.113 ± 0.79.

On to LTTQIVIFFCWVCKDINCCK, for which the amyloid nucleation score is 4.88 ± 0.081.

NLDFLLFGIECIVKTCPFGY registered an amyloid nucleation score of 0.01 ± 0.44.

On to SFDRLMCRAM, for which the amyloid nucleation score came to 0.688 ± 0.88.

Take SQVGALFDVPQSVNDSFKNM: the amyloid nucleation score came out at 0.399 ± 0.57.

In the case of LGNNPTKHC, the amyloid nucleation score is -0.171 ± 0.51.

In turn, KFYYSLDVSSRCNFVLLEVE showed an amyloid nucleation score of 0.669 ± 0.65.

For the substance IFSGSPGLN, the amyloid nucleation score was found to be 5.71 ± 0.076.

As for LYVFSEKIFCRNGFSSYISL, the amyloid nucleation score came out at 0.855 ± 0.74.

AFVEGRMNHPYSGTMLSRRG displayed an amyloid nucleation score of 0.418 ± 0.53.

In the case of FGIIGEERNLRAAPMAGGRP, the amyloid nucleation score was -0.455 ± 1.2.

In turn, LSGWHSNLAGRPFPNEMDDG showed an amyloid nucleation score of 0.284 ± 0.3.

As for RHAKRLWRV, the amyloid nucleation score is -0.574 ± 0.78.

Consider GRRTAI, for which the amyloid nucleation score was -0.069 ± 0.66.

LKWGMVLGAYIHEFGCNM: the amyloid nucleation score came to 0.804 ± 0.61.

With TPSLAEADCL, the amyloid nucleation score is -0.909 ± 2.7.

Turning to VWRGRGCNHLYVMEEKLVGV, the amyloid nucleation score came to 0.623 ± 0.41.

Regarding PFIDNRFKLFRSDGTVRWVI, the amyloid nucleation score result is “inactive”.

Take SALWRNFSALRSNWK: the amyloid nucleation score was -0.325 ± 0.34.

In the case of IGMRCWTACSSKRFESCRRV, the amyloid nucleation score was found to be 0.743 ± 0.44.

In turn, IWRFIFGFGVYVCNGMALSQ displayed an amyloid nucleation score of 0.291 ± 0.53.

Regarding LDVYCH, the amyloid nucleation score result was “inactive”.

In turn, VLIINFLPVWWKTYLSMMIR registered an amyloid nucleation score of -0.256 ± 0.45.

RARTKAWWMDWSGYRRGGHL: the amyloid nucleation score was determined as 0.118 ± 0.58.

Take FDVGSFTGIGV: the amyloid nucleation score was 0.115 ± 0.77.

In turn, REGATIPWFRCNRLE registered an amyloid nucleation score of -0.167 ± 0.33.

In the case of PLSVNLKYVYNLVVDLFGLP, the amyloid nucleation score was 2.61 ± 0.19.

Consider SQSIAVCMVKCNCDCVHIGE, for which the amyloid nucleation score came out at 6.126 ± 0.05.

The substance PIVMCFFGKV gave an amyloid nucleation score of -0.201 ± 0.41.

IENPVLRCSLYYPSRPIRRL yielded an amyloid nucleation score of -0.344 ± 0.58.

Consider PSKSVCKPCRWSGSWWGER, for which the amyloid nucleation score is 0.073 ± 1.6.

In turn, YDGPLFVTFILI gave an amyloid nucleation score of 5.88 ± 0.077.

As to YSCFDRAPRFETSVESCDMS, the amyloid nucleation score was determined as 0.093 ± 0.87.

Regarding WSNPPITCSSVGINHHVSVV, the amyloid nucleation score was -0.171 ± 0.33.

Consider ASGKYNRLCIGFVWGCEQGM, for which the amyloid nucleation score came to 2.12 ± 0.26.

WSVVLDFTVDLVHFGPVGRC returned an amyloid nucleation score of 0.242 ± 0.36.

Consider GYVDGSRGRGAPNGAMCRCF, for which the amyloid nucleation score worked out at 0.205 ± 0.76.

In the case of NQWCAFWYRESSRVYDCDWL, the amyloid nucleation score was -0.478 ± 0.53.

Turning to FVLDNRKFYVCFVGYRFGLF, the amyloid nucleation score was 4.83 ± 0.051.

For the substance CRYSACAKRMSSFCRVRMCL, the amyloid nucleation score worked out at 0.194 ± 0.66.

WCLWCVQVRFFFNVLFFK had an amyloid nucleation score of 0.95 ± 0.44.

For the substance YRIKGVNWALPLCLALLSLR, the amyloid nucleation score was 0.068 ± 0.61.

As for YCLSYEDCYWYVSVSLRYLW, the amyloid nucleation score was -0.477 ± 0.31.

IIIPFLSNSCEFMWL had an amyloid nucleation score of 4.81 ± 0.076.

Turning to VLEDDSDWGSRFVRRGYIKT, the amyloid nucleation score was determined as 1.15 ± 0.61.

In turn, VSFILGSNCWAYKTTPMGFL had an amyloid nucleation score of 0.881 ± 0.39.

Turning to SRWTQS, the amyloid nucleation score is 0.201 ± 0.88.

CIKNSLRRYMCAYFSWGRRG displayed an amyloid nucleation score of -0.744 ± 1.2.

Take VGLCYRGKWDGFLDKKVRWK: the amyloid nucleation score was -1.73 ± 2.7.

DKLDSLIRVLNRLDNL: the amyloid nucleation score is -0.316 ± 0.4.

Substance VLLVRSNKSKLDRHRDWSGK showed an amyloid nucleation score of 0.466 ± 1.4.

For IYRSHRMPKSTRTLV, the amyloid nucleation score is -1.16 ± 1.9.

KGMLLCYFPNKCPAWEAKCG came in with an amyloid nucleation score of 5.17 ± 0.059.

As to YVVFMYFAF, the amyloid nucleation score was 5.9 ± 0.068.

Turning to KHRLGQSMVSVRHYRFWGRI, the amyloid nucleation score was -0.437 ± 0.57.

The substance FWTAPKLARDMSVLVTVFFY showed an amyloid nucleation score of -1.4 ± 2.1.

For the substance GHHVRLLFLCVHTISYMESR, the amyloid nucleation score was determined as 0.582 ± 0.9.

The substance VACLKRW returned an amyloid nucleation score of -0.29 ± 0.42.

Consider LVAATP, for which the amyloid nucleation score was found to be 0.898 ± 0.66.

LVRYLCVPSFGKAGYDGEGE: the amyloid nucleation score was -0.86 ± 0.79.

HSYTTV displayed an amyloid nucleation score of -0.905 ± 2.1.

As for WFFAAVWVLEFYEFR, the amyloid nucleation score was -0.432 ± 0.3.

DGNLKSR registered an amyloid nucleation score of 0.644 ± 0.78.

In turn, DNRVLVPRRAFNDHIWCMYV came in with an amyloid nucleation score of -0.23 ± 0.61.

On to VFWVNFLFYYGSLLHSKGV, for which the amyloid nucleation score is -1.05 ± 1.

KIILPVSGVKINMQAWSRSH displayed an amyloid nucleation score of 4.07 ± 0.091.

In turn, NTAQVLYYL had an amyloid nucleation score of -0.674 ± 0.22.

NLQVVYMSLV displayed an amyloid nucleation score of 2.99 ± 0.14.

Consider TKNSRTRLASSSLIWNW, for which the amyloid nucleation score is -1.45 ± 0.76.

Substance FFWNRWRRTQRANTMLMMRM displayed an amyloid nucleation score of 0.402 ± 0.68.

In turn, ARWWVRLEYC came in with an amyloid nucleation score of 0.523 ± 0.29.

For the substance FGVNCNYCLILVQCMC, the amyloid nucleation score was 2.35 ± 0.52.

In turn, MVKLSLVIMMVLNGGMANGS returned an amyloid nucleation score of 0.69 ± 0.81.

In turn, VLSHVGFKSRMSVTNPGCLD came in with an amyloid nucleation score of -0.562 ± 0.81.

For the substance EVADVGKMMIVVGDCRVFRW, the amyloid nucleation score is 5.593 ± 0.048.

For the substance GEFTRGDTSKWFLLDK, the amyloid nucleation score came out at 0.577 ± 0.56.

Substance PAPPAQHIYVQRVYSFCQRG gave an amyloid nucleation score of -0.161 ± 0.9.

The substance CGYCD had an amyloid nucleation score of -1.69 ± 2.4.

LCSDIG showed an amyloid nucleation score of -0.09 ± 0.4.

Substance GRTSCLKRGISKEASLTGS returned an amyloid nucleation score of 1.25 ± 0.53.

Regarding AYNVVHSSLGTKGVRGSCAT, the amyloid nucleation score is -0.74 ± 1.7.

For LGFMTCSP, the amyloid nucleation score result was “inactive”.

With FYTVSCLVCLGL, the amyloid nucleation score turned out to be 8.507 ± 0.047.

DVTLMCYRQCLDMDMPIDLG: the amyloid nucleation score was found to be 0.733 ± 0.32.

For the substance DIKCLLR, the amyloid nucleation score was determined as 0.238 ± 0.36.

In turn, GMDTYLMETLCSTVNLRCHA displayed an amyloid nucleation score of -0.604 ± 1.

Substance FISNIFKMKMATQSGGLGVR came in with an amyloid nucleation score of -0.789 ± 0.71.

For IKCHYFDVCLNVWSLCYLAC, the amyloid nucleation score amounted to 1.24 ± 0.46.

WNLNKYSFILALDGSYYVLN displayed an amyloid nucleation score of 3.23 ± 0.24.

As for RVYYSRYYVFDHSYFDTRRG, the amyloid nucleation score is -1.07 ± 1.3.

As to IACSARMFYDS, the amyloid nucleation score is 0.399 ± 0.47.

Turning to TYTCPVGNWVRMEGDLYFLA, the amyloid nucleation score was -0.847 ± 1.3.

Consider IVSNAIIPTGEG, for which the amyloid nucleation score was 0.283 ± 0.71.

In turn, TFLSL yielded an amyloid nucleation score of 0.068 ± 0.24.

Consider VFTSNGNDLPISRSELRLNL, for which the amyloid nucleation score result was “inactive”.

LPMLLFAHITFNMLNDVSPN registered an amyloid nucleation score of 5.94 ± 0.086.

The substance VVEKYSCIRESFHEGFG yielded an amyloid nucleation score of -1.07 ± 1.7.

As for WLLNMENYWTVSTAGWSRWN, the amyloid nucleation score turned out to be 0.332 ± 0.46.

With KVKANILVFLTKLSMRPTKP, the amyloid nucleation score is 1.86 ± 0.29.

INSRAIRLAKGDSVSWSSHG registered an amyloid nucleation score of -0.244 ± 0.32.

For the substance SFYQAYYVACCKYNVEY, the amyloid nucleation score was 5.96 ± 0.063.

The substance SGILNAKLNSIGIEKSYAGF returned an amyloid nucleation score of -2.07 ± 2.4.

SCPVLHAVPNYCAKALLSLR returned an amyloid nucleation score of -0.794 ± 0.64.

Turning to GLWIRFIAVTSSSVEIRANS, the amyloid nucleation score was -0.776 ± 0.62.

Consider GVQAVNVEVVNEVCLVKEAT, for which the amyloid nucleation score is -0.153 ± 0.46.

Take MRNYNLAWRHSSYCTIRSNA: the amyloid nucleation score was 0.51 ± 0.84.

As for CQSKYYIMRACCFMATLWYW, the amyloid nucleation score is -0.475 ± 0.47.

Substance NCNSGSNDTGFWQMASRTGL showed an amyloid nucleation score of 0.071 ± 0.4.

The substance NSRMMLGVLSSVAYGVRMVW had an amyloid nucleation score of 0.651 ± 0.56.

LPCMGKLIYVCRSRLEREQS gave an amyloid nucleation score of 0.498 ± 0.62.

For NSSSIQVANRARDV, the amyloid nucleation score entry was “inactive”.

The substance SILFATAFMPVGLRLNDVLS yielded an amyloid nucleation score of -0.003 ± 0.46.
